Data as given in patent US20100190698A1 (PHYLOGICA, published 2010).

The binders below were run against c-Jun (Jun dimers as AP-1 moieties, endogenous in K562/AP1-Luc cells) (UniProt P05412 1-331) (assay: cell-based or functional assay).
c-Jun (Jun dimers as AP-1 moieties, endogenous in K562/AP1-Luc cells), sequence (P05412 whole entry): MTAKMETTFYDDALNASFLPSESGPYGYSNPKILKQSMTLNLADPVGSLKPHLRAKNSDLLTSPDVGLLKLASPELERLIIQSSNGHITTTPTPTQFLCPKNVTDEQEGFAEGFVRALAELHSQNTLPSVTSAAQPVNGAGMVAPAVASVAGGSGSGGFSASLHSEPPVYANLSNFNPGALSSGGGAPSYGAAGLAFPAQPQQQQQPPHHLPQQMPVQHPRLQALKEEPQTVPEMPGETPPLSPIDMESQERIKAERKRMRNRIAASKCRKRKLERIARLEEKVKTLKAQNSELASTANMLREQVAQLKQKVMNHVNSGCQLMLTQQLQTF

| AP-1 reporter activity (luciferase, K562/AP1-Luc cells), of the level observed for the control sample | Binder |
| --- | --- |
| ~44 % of control | RSDYKDDDDKGLQGRRRQGYQSIKP [PYC36] |
| ~35 % of control | RSDYKDDDDKAYQSIRSGGIESSSKRER [PYC35] |
| ~48 % of control | RSDYKDDDDKVSINQEHHRLLPL [PYC41] |
| ~47 % of control | RSDYKDDDDKGLQGRRQPGQQPQGRWSGRALPAHR [PYC38/39] |
